In paper PMC8639829:

B1: full promoter: 5' vRNA 0-19 / 3' vRNA 1-19 (structured_RNA)
RNA 1: GCGCACCGGGGAUCCUAGGC
RNA 2: GCCUAGGAUCCACUGUGCG

How the values were obtained:
LASV L protein (WT) [1] = biological target: T1, LASV L protein (WT) (Lassa virus Bantou 289, UniProt A0A3S8NV63 1-2217); assay: EMSA; details: protein: recombinant; tags: internal StrepII after residue 407, or C-terminal StrepII-His; label: 5' Cyanine3; single strand
LASV L protein (WT) [2] = biological target: T1, LASV L protein (WT); assay: cryo-EM; PRE-[…]ON, 3.34 A; details: protein: recombinant; tags: internal StrepII after residue 407, or C-terminal StrepII-His

Binder	binding result (LASV L protein (WT) [1])	binding result (LASV L protein (WT) [2])
CCACUGUGCG (ssRNA) [3' vRNA 1-10 nt]	binds	–
B1	–	binds
